One molecule from patent US20230184768A1 (MESO SCALE TECHNOLOGIES, published 2023) can be followed below.

For the assay, the target named is T1, labeled ACE2 (angiotensin-converting enzyme 2) (human, UniProt Q9BYF1 18-740).
T1 construct: also called ACE2 detection reagent
The assay is described as follows: labeled ACE2 on immobilized Mixed Panel, ECL.

T1 sequence (Q9BYF1 18-740 limits assumed): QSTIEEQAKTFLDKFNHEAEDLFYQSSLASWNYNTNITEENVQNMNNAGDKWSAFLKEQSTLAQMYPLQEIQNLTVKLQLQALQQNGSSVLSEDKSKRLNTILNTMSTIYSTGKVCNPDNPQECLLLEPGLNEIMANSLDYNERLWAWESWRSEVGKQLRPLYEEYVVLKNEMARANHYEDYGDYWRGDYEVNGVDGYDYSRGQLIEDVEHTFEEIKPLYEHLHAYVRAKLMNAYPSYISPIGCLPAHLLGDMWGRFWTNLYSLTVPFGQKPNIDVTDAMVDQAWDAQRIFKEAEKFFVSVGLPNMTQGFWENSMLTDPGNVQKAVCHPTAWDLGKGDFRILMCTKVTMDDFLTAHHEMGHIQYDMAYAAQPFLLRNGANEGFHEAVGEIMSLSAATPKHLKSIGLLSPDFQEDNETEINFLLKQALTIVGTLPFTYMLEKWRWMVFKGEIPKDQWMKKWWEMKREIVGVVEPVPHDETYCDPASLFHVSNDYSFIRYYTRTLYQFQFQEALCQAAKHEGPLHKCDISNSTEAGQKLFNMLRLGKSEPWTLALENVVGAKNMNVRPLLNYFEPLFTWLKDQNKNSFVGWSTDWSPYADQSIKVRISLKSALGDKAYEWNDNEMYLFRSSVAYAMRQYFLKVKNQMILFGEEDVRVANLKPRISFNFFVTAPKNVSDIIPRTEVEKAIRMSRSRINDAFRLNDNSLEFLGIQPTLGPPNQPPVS

B1: HCoV-OC43 S protein (other)
chain: AVIGDLKCTSDNINDKDTGPPPISTDTVDVTNGLGTYYVLDRVYLNTTLFLNGYYPTSGSTYRNMALKGSVLLSRLWFKPPFLSDFINGIFAKVKNTKVIKDRVMYSEFPAITIGSTFVNTSYSVVVQPRTINSTQDGDNKLQGLLEVSVCQYNMCEYPQTICHPNLGNHRKELWHLDTGVVSCLYKRNFTYDVNADYLYFHFYQEGGTFYAYFTDTGVVTKFLFNVYLGMALSHYYVMPLTCNSKLTLEYWVTPLTSRQYLLAFNQDGIIFNAEDCMSDFMSEIKCKTQSIAPPTGVYELNGYTVQPIADVYRRKPNLPNCNIEAWLNDKSVPSPLNWERKTFSNCNFNMSSLMSFIQADSFTCNNIDAAKIYGMCFSSITIDKFAIPNGRKVDLQLGNLGYLQSFNYRIDTTATSCQLYYNLPAANVSVSRFNPSTWNKRFGFIEDSVFKPRPAGVLTNHDVVYAQHCFKAPKNFCPCKLNGSCVGSGPGKNNGIGTCPAGTNYLTCDNLCTPDPITFTGTYKCPQTKSLVGIGEHCSGLAVKSDYCGGNSCTCRPQAFLGWSADSCLQGDKCNIFANFILHDVNSGLTCSTDLQKANTDIILGVCVNYDLYGILGQGIFVEVNATYYNSWQNLLYDSNGNLYGFRDYIINRTFMIRSCYSGRVSAAFHANSSEPALLFRNIKCNYVFNNSLTRQLQPINYFDSYLGCVVNAYNSTAISVQTCDLTVGSGYCVDYSKNRRSRGAITTGYRFTNFEPFTVNSVNDSLEPVGGLYEIQIPSEFTIGNMVEFIQTSSPKVTIDCAAFVCGDYAACKSQLVEYGSFCDNINAILTEVNELLDTTQLQVANSLMNGVTLSTKLKDGVNFNVDDINFSPVLGCLGSECSKASSRSAIEDLLFDKVKLSDVGFVEAYNNCTGGAEIRDLICVQSYKGIKVLPPLLSENQISGYTLAATSASLFPPWTAAAGVPFYLNVQYRINGLGVTMDVLSQNQKLIANAFNNALYAIQEGFDATNSALVKIQAVVNANAEALNNLLQQLSNRFGAISASLQEILSRLDALEAEAQIDRLINGRLTALNAYVSQQLSDSTLVKFSAAQAMEKVNECVKSQSSRINFCGNGNHIISLVQNAPYGLYFIHFSYVPTKYVTARVSPGLCIAGDRGIAPKSGYFVNVNNTWMYTGSGYYYPEPITENNVVVMSTCAVNYTKAPYVMLNTSIPNLPDFKEELDQWFKNQTSVAPDLSLDYINVTFLDLQVEMNRLQEAIKVLNQSYINLKDIGTYE
notes: also called HCoV-OC43 spike protein
With B1, the binding result is on record as “no binding”.
